Results: publication PMC8405998, “Catalytic mechanism of ancestral L-lysine oxidase assigned by sequence data mining” (The Journal of Biological Chemistry, 2021)

Key:
[1] = target: T1, AncLLysO (synthetic construct, UniProt Z9DQU9YC40); assay: X-ray crystal structure, […]-2.[…] Å; format: binding; conditions: substrate-free form; crystals at pH 7.5
T1 sequence (Z9DQU9YC40 1-589): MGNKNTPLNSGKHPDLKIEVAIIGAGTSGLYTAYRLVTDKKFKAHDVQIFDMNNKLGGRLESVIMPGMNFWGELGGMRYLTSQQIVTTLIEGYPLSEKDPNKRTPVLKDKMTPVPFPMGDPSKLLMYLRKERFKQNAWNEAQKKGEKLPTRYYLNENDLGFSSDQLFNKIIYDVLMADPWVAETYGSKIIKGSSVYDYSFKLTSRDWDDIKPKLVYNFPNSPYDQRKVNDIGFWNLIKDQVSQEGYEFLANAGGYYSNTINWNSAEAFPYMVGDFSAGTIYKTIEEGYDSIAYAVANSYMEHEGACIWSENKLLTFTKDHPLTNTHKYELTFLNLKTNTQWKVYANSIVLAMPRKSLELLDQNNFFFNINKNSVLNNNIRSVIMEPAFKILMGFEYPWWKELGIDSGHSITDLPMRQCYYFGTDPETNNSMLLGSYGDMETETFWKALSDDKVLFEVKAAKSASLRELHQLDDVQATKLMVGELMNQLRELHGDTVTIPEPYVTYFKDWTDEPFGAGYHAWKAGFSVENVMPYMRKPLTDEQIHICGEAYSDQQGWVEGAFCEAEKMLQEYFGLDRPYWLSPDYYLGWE

[2] = system: N=C(N)NCCC[C@H](N)C(=O)O; assay: purified protein; conditions: 100 mM Bis-Tris-HCl pH 7.0, O2 as co-substrate
[3] = substrate: NCCCC[C@H](N)C(=O)O; assay: purified protein; conditions: 100 mM Bis-Tris-HCl pH 7.0, O2 as co-substrate
[4] = substrate: N=C(N)NCCC[C@H](N)C(=O)O; assay: purified protein; conditions: 100 mM Bis-Tris-HCl pH 7.0, O2 as co-substrate; remark: listed apart in the source
[5] = substrate: NCCC[C@H](N)C(=O)O; assay: purified protein; conditions: 100 mM Bis-Tris-HCl pH 7.0, O2 as co-substrate

Cc1cc2nc3c(=O)[nH]c(=O)nc-3n(C[C@H](O)[C@H](O)[C@H](O)COP(=O)(O)OP(=O)(O)OC[C@H]3O[C@@H](n4cnc5c(N)ncnc54)[C@H](O)[C@@H]3O)c2cc1C [FAD]
X-ray crystal structure, 2.2-2.4 Å [1]: the Rossmann-core fold, which recognizes FAD

AncLLysO (synthetic construct)
Km [2]: 6900 ± 1100 µM | kcat [2]: 11.4 ± 1 s⁻¹ | kcat/Km [2]: 1700 M⁻¹ s⁻¹

B1: CaLLysO (Chryseobacterium angstadtii) (protein)
chain: MNKNTPLNTGKQPDLKTEVAIIGAGTSGLYTAYRLVTDKKYTASEVQIFDMNDKLGGRLESVIMPGMNFWGELGGMRYLTSQEIVTTLIEGYPLSETDPAKRIPVLKDKMTPVPFPMGDPSKLLMYLRKDRCKQDAWTVAQGEGEKLPTRYYLNDDDFGFSSDQLFNKVIYDVLMADAWVAETYGKKIIKGSSIYDYSFELTSRDWDDIKPKLVYNFPNSPYDQRKVNDLGFWNLLKDQVSQEGYEFLANAGGYYSNTINWNAAEAFPYMVGDFSAGTIYKTIEEGYDSIAYAVANSYMEHEGACIWSKNKLLTFTKDHDLKSTYKYRLTFLNLETNTQWNVYANTLVLAMPRKSLELLDQDNFFFNINENSVLNENIRSVIMEPAFKILMGFPYPWWKELGIDSGHSITDLPMRQCYYFGTDPQTNNSMLLGSYGDMETETFWKALSDDKILFEVKAAKSASLKELHELDDVQATRMMVDELMNQLRELHGEEITIPEPYVTYFKDWTDEPFGAGYHAWKAGFSVENVMPYMRKPVADEQIHIVGEAYSDQQGWVEGAFCEAEKMLQEYFGLNRPIWLNPDYYLGW
Km [3]: 27 ± 3 µM | Km [4]: 340 ± 30 µM | kcat [4]: 11.4 ± 0.1 s⁻¹ | kcat/Km [4]: 33200 M⁻¹ s⁻¹ | Km [5]: 4400 ± 400 µM | kcat [5]: 3.6 s⁻¹ | kcat/Km [5]: 810 M⁻¹ s⁻¹
